T1: ORA47/ACRE3 (ERF018) (Arabidopsis thaliana, UniProt Q9S7L5 1-195)
T1 sequence: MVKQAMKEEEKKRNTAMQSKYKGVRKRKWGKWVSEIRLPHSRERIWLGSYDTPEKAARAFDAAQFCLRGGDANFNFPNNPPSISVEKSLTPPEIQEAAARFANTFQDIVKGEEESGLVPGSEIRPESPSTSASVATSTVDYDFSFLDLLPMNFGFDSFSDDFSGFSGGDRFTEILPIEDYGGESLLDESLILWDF

T2: ACRE2 (ERF017) (Arabidopsis thaliana, UniProt Q84QC2 1-185)
T2 sequence: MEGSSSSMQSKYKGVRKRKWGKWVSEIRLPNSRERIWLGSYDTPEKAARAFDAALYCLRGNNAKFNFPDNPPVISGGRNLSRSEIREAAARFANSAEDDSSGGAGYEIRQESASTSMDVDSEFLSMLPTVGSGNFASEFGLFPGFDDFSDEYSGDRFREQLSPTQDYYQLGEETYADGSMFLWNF

T3: ACRE1 (Arabidopsis thaliana, UniProt Q9C591 1-216)
T3 sequence: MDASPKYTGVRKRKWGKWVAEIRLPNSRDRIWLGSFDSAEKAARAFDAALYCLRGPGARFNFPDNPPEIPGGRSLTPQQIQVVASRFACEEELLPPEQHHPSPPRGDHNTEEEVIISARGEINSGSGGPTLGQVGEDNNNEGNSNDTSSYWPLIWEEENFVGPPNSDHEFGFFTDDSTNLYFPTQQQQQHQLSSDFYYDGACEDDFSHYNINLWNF

B1: BA (dsDNA)
DNA 1: CTAGTCTTAATGGACGGTATTGT
DNA 2: ACAATACCGTCCATTAAGACTAG
B2: SPO (dsDNA)
DNA 1: CTAGTACACTTGGACGGCCACAT
DNA 2: ATGTGGCCGTCCAAGTGTACTAG
B3: DRE (dsDNA)
DNA 1: TCGAGTAAATCATGTCGGTTGAAAG
DNA 2: CTTTCAACCGACATGATTTACTCGA

biological target: T1, ORA47/ACRE3 (ERF018); assay: EMSA; EMSA: 15 mM HEPES-KOH pH 7.5, 25 mM KCl, 0.25 mM EDTA, 6% glycerol, 2 mM DTT, 20 fmol probe (Methods print 20 fg), 0.2-0.8 ug protein, room temperature 30 min; settings: protein: recombinant; tags: MBP (N-terminal); label: biotin as probe

Binding result, binds:
B1
B2
B3

biological target: T2, ACRE2 (ERF017); assay: as above; settings: protein: recombinant; tags: MBP (N-terminal); label: biotin as probe

Binding result, binds:
B1
B2
B3

biological target: T3, ACRE1; assay: as above; settings: protein: recombinant; tags: MBP (N-terminal); label: biotin as probe

Binding result, binds:
B1
B2
B3

— article PMC11076338, “ACRE, a class of AP2/ERF transcription factors, activates the expression of sweet potato ß-amylase and sporamin genes through the sugar-responsible element CMSRE-1”
